Experimental data from a protein production outcome set (Wang et al. 2014).

Experiment: label from the status in PepcDB records
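Further: failed if final PepcDB status was selected cloned or expressed and not failed if soluble or beyond.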

| Sequence | protein production |
| --- | --- |
| MKRPHGYQITSLRADKYGGYYAANFVGNEILYFDVNNNVNALVKDGFSYLKSPYDVIEANNLLYVTLYSSDEIGVYDKVLGVKRKSIGNKGTKDGELLAPQYMAIDKRNYIYVSEWGNKRVSKFGLEGDFILHFGSRTSGYKGLLGPTGVTYLNENIYVADSLRNTIEVFDTSGNHLYSVFTSIEGIEGLSSDFVGNNVIVSSKDGVYKYSIAKKTITKILKADKMNSKISSSILDANNQMIVSDFNNAKVSVYKSDASLYDSLEHHHHHH | not failed |
| MTKKLNPLEDPPTATSSDEDDVETSEAGEASDDSSSSEEDVPIKIRIKSPSATTAAAPPAKSTAVSTAADSDSGSETETDSDSESTNPPNSGSGKTIALNTVNLKKKEDPTSSSATLALPAMKSGTKRPASEAAATTSTKRVKKDEESVKKPGGFQRLWSEEDEILVLQGMIDFKADTGKSPYVDTNAFYDFLKKSISFEVSKNQFMDKIRSLRKKYIGKEGRNEPSFVKAHDKKAFELSKFIWGPKGIALDSNVKSNGVSKKSVAKKKIDSVKQELVFAGGSSTNGKKVEEDGGDDGCDWFDNSSLVRMIASLGVDEYYVKQQWSLVSVESKKIVEEKYKLLQAKELEFVLEKTKFLNEVASMFVEASKNKPLDT | failed |
| LKLEVVEDKQYGRLANRIENVVSQERTRKKFESLVSDSPDGIVHLTTNGTILSVNPSMAGRLGADPDTLVGQQLSAVMDSEAANQRLEAGKSAVENGTATRSEDAVGGRHYHNQYIPVDSHR | failed |
| MDVPSSWDALRKQARKIEAQLDEQMHSYRRLVSTKALSKSDGNESDLEAGIDLLLRQLQQVNAQMQAWVSSGGSEMVSHTLTRHQEILQDLTQEFYRHRSSLRAKQEHASLLEDFREFDRTRLDLEDGYGSEQALIKEHMGINRNTAQMDGVISQAQATLGTLVFQRSTFGGINSKLSNVASRLPTVNTILAAIKRKKSMDTIILSLVAAVCTFLIFIYWITK | failed |
| MFTLFAIQFFTTAAAVAFLLTELMGGFMLLFDWKNSGQKIMTYVAPIWEVTGTFLAMFVVETDATFAGILIPAAFAFAALLLIFLILFIVRNVAIILGEFAGSRKIFTDRQLYYIYVIATLLISVVFLAFSSAIISGNGVKIDIAGNPVDSLLSVSNAEISFNLASWLAGPGDILFVVSAALIAFGLSPVFYDVDRFSTYGVISSVIGFILGIVSFVQMGVHISPIIIIPAIIIIGVPILYRIGLAKKILTNKALFIVLLIVSIYSLYFTVYPSAMNGKLPLSQIITTGPMVIGTILTTVVGFTLLAFMLSLYVYVNYRSSRNQMTTLPK | failed |
| MHDATDSLPLCMTRPTRFRWVWWLLAYASLATGIVGIFVPGLPTTVLILNLRLGRLTWLRSRLHYWLLSHPRFGPAIVEWQTYRAVSRKAKWMATLTMSICAAIMLWCVPVFWVKCLSIGSMAVVAIWLWLRPEPPPRPLPAAH | failed |
| WMVQDSVGSGAALASLEGEETGRLWLAAQPEHGFQTLQGLAYALAREVRRLQPDSPYRLAGKGVLGALAYEVGLQLRGMGQTVACVALEGAPAWVRQSEALAVERSQASLPAWLRRCLSSYVPEPGDFPLQPTNMPASAEAFWRALG | failed |
| MCRSIRLTAMAAFLVIMGGAACSGKPVLPDLTLEGGDRSYSELITAQQHSFSIHTPSDAPLENSSIRIEVNEGESLTPRLRSSGSVDCSSLASVVAGVVAPGMTAEEKALALWRFVMDSCYHGRWGTSLDGLEHLNVYGYGYCGTYAAVLESLWWTAGLTARHVNIGNHAATEVYYNNDWHYIDADTRTYFLLKDNRTIASLDELNDNVELWTMLRRGSSRKAGKKYYYMTMHPNGHGRSPVYTNDFTMAKGDVLTLDWQSRGKWCLNRGQEGGKEPAGEPPFYGNGLFTFHRDFKDRSQSRSGLVSSTNIDWQDAAAGYLHPQHAKQEASLVYRVKTPYFIPETTLSGSFFRKGTGDSAAIDISTDNGKRWVSLWRADATGTVKASVVTAQTQQVTTDVPWKYSYLMRLRMRAGKSPRDVGAYHLDSASVLAYNPRCLPALRPGDNRITFSDGSQARRTVRVTYNWHDDLPITLSKETPFEGEEITVSARVTNRGAAEAHNVPVAVYLGNPAQGGVEIGRDTISRIPVGGTGLARVQWKATRKLAGRAANPGVPVYAVVDPDNRVAESDKANNVFSRIVKVLNPPDVRIPSESFIRFERAKDHSQSLAVVASVRNFSNSADYGLFLDDHGTGEAVEVTVYDGNPAKGGKVIGRETISRLLPLEHRNVSVKWDIAQLKGVHTVYVQVHPPANLTRAPGKRAPAAMAVPVDLDAYRSCKGI | failed |
| TVSQLRSRITRFALAGRGMRETVTWSFISEKQALAFGGGQAQLKLVNPISADMSVMRPSLLPGLLVAAQRNADRGFPDFALFEVSNIYEDDTPDKQHRVAGGIRRGTEQFGGAGRFWNGNARAVDVFDAKADALAVLEACGLESGKVQIEVGAPDWYHPGRSGVIKLGSKIILGFFGVFHPATLEKLDISGPLCGFEIFLDRIP | failed |
| MFIKGVILSSYGVNGYARVKSISNNFCDFINLKNNKVLLKKSNSSSVEVKVVDVNIKGNSLFLKFEEIDTPEAVRPLIGFELWVDDSLASSLKEGEYYLGKLIGYAIVNNNKKLGEVVAFFEYLNSVFLEVRVGIKFFFIPFLSIYIGDINTQEKTIELKVLDLLKLEHHHHHH | failed |
| MSFSDHFSAVAASYAKARPRYPQRWFRYLARIVPDRQRVWDCATGNGQAAIALAEYFSEVIGSDASAAQVRQARSHPRVQYLVFPAEATPLAPASLDLITVAQAAHWFDLPQFYIEAQRLLRPGGVIALWGYGLGSLNPAIDHVFNHFYRDWLDPYWPPERQWVEQAYEGLSFPFEPLPTPTFSMQCDWTLFDLLAYLRTWSGVQQFQRQRGFDPVWAIAPELQRVWGDPQRYRRITWPLFAKVGRWQPLEHHHHHH | not failed |
| MLILSTEKEPNFEYEEITRSFLSNMLAFTRGHFTGDISHFSPIVLAEMEKDPNWLEEAAGGMQGVIVQSLLEDENFSSVEQLKGELARLIRLYFALAKDNLTENQESLYVDLFDKFTFLLLCSDEFIMYLDSQPKF | not failed |
| MNEKFNINIAWFLIILGGIIECFWVSGLKYSTEIWHYILTAIGVCISFTCFLKACERLEVSITYSVFVGIGTIGVVLNEMFIFNEAVSIIKLVLIAILLLSIIALKWVSKEA | failed |
| MENRSHALLAGLFTLALLVAAALVAIWVGRDRAALKPYVIVSATSVSGLSAQSTVRYQGVPVGKVQSLGFNPDKPAQVRISIGVAPDTPITESTWAELGVQGVTGLGNIELRDDGTSTRRLASSAAMPATIPLRPGFFQRFEQRGGEILHNVEQVSARLERLLSNENVQATTATLQNIAAITTDLRQAATELRPALAQVPPLVDSLQAMSRNTGQAAQEIAGLAQAARQALARLDAPDGPLAMATRSMRDIAWAAARLDAQTLPAVSGMASSIDSAARSATTTLRRVGDTPQSLLFGPPPTVPGPGEPGFAGFGR | failed |
| LPDQRTVLYVHGGAWFQDPLENHFEYLDLLVDALDARVIMPVYPKIPHRDYRTTFELLTKIYKRLLTKIDEPENLVIIGDSAGGQIALAFAQMLKKEQLSQPGHIVLISPVLDATFKNPEARKYEKEDPMLGIDGSKYLVELWAGDAPLDDYKMSPMNGDLEGLGHITLTVGTKETLYPDAVKFSHMLNDKGIKHQFIPGYNLFHIYPLFPIPERQRFLEQLKKIIVTKEL | not failed |
| MPAGAVRRRLGRRAGGWENGGMSDSSPARPAAPVLDVWCELQCPDCHTALDDVRALRARYGDRLEVRLRHFPLEKHKYAFAAAQAAEEAVAQGRGWPYAEAVLDRVAELDRKGEPFLVEVARELGLDAEEFDTALIDGRHILIVDADQAEGKAIGVTGTPTYVIGGERLDGGKSQDGLRERIEEIADRLLAQPRD | failed |
| MLNGDVTLRAWTNIWMFLIYGLAIFLEPIHNNIRHLPILVRGGIYSTLIIISEYITGSFLCFMLGTCPWHYSSGPFTIQGITRLDYFPYWLIAGLLFEKLHDALLKISINVEQSSS | failed |
| MSEVTRSLLQRWGASLRRGADFDSWGQLVEAIDEYQILARHLQKEAQAQHNNSEFTEEQKKTIGKIATCLELRSAALQSTQSQEEFKLEDLKKLEPILKNILTYNKEFPFDVQPI | not failed |
| MEDEHSRQAYVDQLGLLEEGADEVFEEILAAATSYFQTPIALISILDHQRQWFRASIGLDIRQTPRRDSFCAYAILGKGVFEVADATLDPRFRDNPYVQGEPRIRFYAGAPLATAEGLNLGSLCVIDREPRGPLAERDVAMLEHFARLVMARIHTLRSTNYIDEPTGLYNRLRLQEDVSLRLQRDGALTVIAADLLPLALLNTIIRTLGYPFSNDLMLEARDRIRAELPDFTLYKISPTRFGLLLPRQQQEETESVCLRLLRAFESPVVCRGIPIKANVGLGVLPLADDTLDGDQDWLRLVVSAADDARDRGVGWARYNPPLDQAQQRAFTLLTSLSQAIGTEEGFHLVYQPKIDLPTGRCTGVEALLRWRHPQLGFVSPAEFVPLAEKTALMRPLSDWVLRHAMAQLAQWNARNIPLRLAINVSASDMEDSSFLEEAVRLAKTYDIDLSALELEFTESVLIRDASAVGSVLLRARELGMGIAVDDFGTGYSNWTYLRDLPITAIKLDQSFTRDLAGSPKAQSVTQAVIGLASQLGYRVVAEGIETHDTFHLLQAWGCHEGQGYLIAQPMLPEQLEDWLRRLEHHHHHH | failed |
| MDYTYTVMTQEEAEEIAYNWHYEGEYSFYDIEADEEDLAEFLHDESRGDHIFSVKEHGTLIGYFTVCKINDGTVDIGLGMKPNITGNGFGLQFINAILAFSKEKYGCKYITLSVATFNKRAIKVYKRAGFEAVGTFIQKTNGSCFEFLKMNYICKND | failed |
| MNVFQMLRLPDLVSLLNLICGIGSIAVAAQSDSFGFALILLLLAAVADGADGYIARRFKGGELGEQLDSLADAVSFGVAPALLIFLEFGVEEPIVGIFAGLYAVCGVLRLARFNSSISVPKAGFEGLPITAGCIMLVTYLLLGESFVIVDVLLALTLALSILMVSTVNYPKIRNIKILAFVAAVFGITMLLYFIDVQYMRVFSFLPFILMLSYLFSPFLKIPVISIATSKDYGNRKGAKAEGRKEKQ | failed |
| MILINKRAEKQDYQTILAIWEKSVIVTHDFLTAEDRQFYKEQIPLFLDNVELFLWFAGEEVIGFSGTSERELDMLFLDPVATGNGYGSQILGWLIENKRINLVDVNEQNENATRFYLKHGFVVSSRSDLDGFGKPYPILQLQLK | not failed |
| MANKNMRNTTTKVEALIESCRSEGKWHRVIELTDELKTGSPHNECLANFLVGEARLESYLEENALASDSNFGRAKSGLAEARRFLHLALGESGQKAGIALDAYLLLAKLCFACGEYEQSLDNFVKAELNTLAEKELTLRSLKILAESYAIKGLCLEQQTTKPSSKFKKAEKDTEMISCFERASDLGLLYLQEYDLVSGSSGSSNNSTAGSTLNVNASTVQPSSSSFAISSTIPASGPSGLEMNRRMGAILETALQRAPIVLIKTEKLQEAVERYRIMLNAIETRATQSLRLTLARQLAEVLLRGVSGTIYSPPFTGKSGGGTLRGGSSKKLWKPRKYAARQQFNPRNQQEEVILLLLIAEALAVRDTVLSQSPEFRQARQHAMGNVTAVYDLLTLATVRWGLVQLLNESFEKALKFSFGEQHVWRQYGLSLMAAEKHSHALRVLQESMKLTPSDPLPCLLASRLCYESLETVKQGLDYAQQALKREVKGLRPSRSQLFVGIGHQQLAIQSNLKSERDACHKLALDALERAVQFDGNDHLAEYYLSLQYALLGQLAEALVHIRFALALRMEHAPCLHLFALLLTSSRRPREALGVVEDALHEFPDNLQLLHVKAHLQLHLEDAETALGTVQHMLAVWRDVYEAQLAGEEEKHSDTKSGVHLAHSSQMSDKDSNSVYAASLAAVSRVEQALSEAASSLSSFTQRPGPRRPWMLQIEIWLLLADVYLRIDQPNEALNCIHEASQIYPLSHQIMFMRGQVHVYLEQWFDAKQCFLNAVAANPNHTEALRALGEAHLVLGEPRLAEKMLKDAAKLDPSCPKIWFALGKVMEILGDFHASADCFATSLQLEPSCPVLPFTSIPLVFE | failed |
